Data taken from publication PMC4188090, “Crystallization and preliminary X-ray diffraction analyses of the redox-controlled complex of terminal oxygenase and ferredoxin components in the Rieske nonhaem iron oxygenase carbazole 1,9a-dioxygenase” (Acta Crystallographica. Section F, Structural Biology …, 2014).

B1: terminal oxygenase (Oxy) component of carbazole 1,9a-dioxygenase (CARDO) from Janthinobacterium sp. J3, reduced state (enzyme, UniProt Q84II6 1-384, looked up)
chain: MANVDEAILKRVKGWAPYVDAKLGFRNHWYPVMFSKEINEGEPKTLKLLGENLLVNRIDGKLYCLKDRCLHRGVQLSVKVECKTKSTITCWYHAWTYRWEDGVLCDILTNPTSAQIGRQKLKTYPVQEAKGCVFIYLGDGDPPPLARDTPPNFLDDDMEILGKNQIIKSNWRLAVENGFDPSHIYIHKDSILVKDNDLALPLGFAPGGDRKQQTRVVDDDVVGRKGVYDLIGEHGVPVFEGTIGGEVVREGAYGEKIVANDISIWLPGVLKVNPFPNPDMMQFEWYVPIDENTHYYFQTLGKPCANDEERKKYEQEFESKWKPMALEGFNNDDIWAREAMVDFYADDKGWVNEILFESDEAIVAWRKLASEHNQGIQTQAHVSG
notes: terminal oxygenase component (Oxy) of carbazole 1,9a-dioxygenase, Janthinobacterium sp; J3; histidine-tagged; Holds a Rieske-type [2Fe-2S] cluster (reduced in this experiment) and a nonhaem iron centre; Trimer in the crystal; Construct as in earlier work (Ashikawa et al., 2005; Matsuzawa et al., 2013); also called Oxyred; reduced Oxy; source: E. coli BL21(DE3), purified (metal-chelation …)

Columns and labels:
[1] = biological target: the molecule itself; experiment: crystal structure; Oxyred and Fdox mixed in a 1:3 molar ratio with 10% glycerol, anaerobic, hanging-drop vapour diffusion at 293 K, 0.1 M sodium cacodylate pH 5.7, 14% (w/v) PEG 3350; dissolved crystals checked by SDS-PAGE and anti-His Western blot; data to 2.25 A, molecular replacement with PDB 2de5 (preliminary)
[2] = biological target: B1; experiment: as above; details: both partners purified

Binder	stoichiometry N [1]	stoichiometry N [2]
B1	3	–
ferredoxin (Fd) component of carbazole 1,9a-dioxygenase (CARDO) from Pseudomonas resinovorans CA10, oxidized state (natural protein, ferredoxin component (Fd) of carbazole 1,9a-dioxygenase, Pseudomonas resinovorans CA10; histidine-tagged; Holds a Rieske-type [2Fe-2S] cluster (oxidized in this experiment); Called a monomer in the crystal; Construct as in earlier work (Ashikawa et al., 2005; Matsuzawa et al., 2013); also called Fdox; oxidized Fd; source: E. coli BL21(DE3), purified (metal-chelation chromatography, gel filtration)) MNQIWLKVCAASDMQPGTIRRVNRVGAAPLAVYRVGDQFYATEDTCTHGIASLSEGTLDGDVIECPFHGGAFNVCTGMPASSPCTVPLGVFEVEVKEGEVYVAGEKK	–	2 molecules of the Fd monomer per one Oxy trimer
